According to patent publication US5834244:
Where a chain is given by its changes, count along the chain named.

B1: IV-32B (designed binder)
chain: VREVCSEQAEPGPCKALMKRWYFDVTEGKCAPFYYGGCYGNRNNFDTEEYCAAVCGSA
B2: IV-54C (designed binder)
chain: B1 chain with K15R, Y34V
B3: IV-49C (designed binder)
chain: B1 chain with K15R, Y34I

The binders below were run against rabbit TF-FVIIa in the PT assay (rabbit thromboplastin with rabbit plasma) (rabbit).

Row | fold increase of clotting time over baseline, PT assay in rabbit plasma (fold increase over baseline at 50 µM) | Binder
1 | 1.2 | B1
2 | 3.5 | B2
3 | 4.4 | B3
